Positions count from the first letter of the chain named. In names and notes the source's numbering stands. Like-named read-outs stand apart in the source and are kept apart here.
Experiments:
[1] = biological target: T1, DivL(523–769) (Caulobacter vibrioides, UniProt Q9RQQ9); experiment: fluorescence titration of TNP-ATP with DivL; settings: read-out: apparent binding constant
T1 construct: DHp-CA domains only (no PAS domains), residues 523-769, N-terminal His6, E. coli Rosetta (DE3) pLysS, homodimer in solution
T1 sequence (Q9RQQ9 523-769): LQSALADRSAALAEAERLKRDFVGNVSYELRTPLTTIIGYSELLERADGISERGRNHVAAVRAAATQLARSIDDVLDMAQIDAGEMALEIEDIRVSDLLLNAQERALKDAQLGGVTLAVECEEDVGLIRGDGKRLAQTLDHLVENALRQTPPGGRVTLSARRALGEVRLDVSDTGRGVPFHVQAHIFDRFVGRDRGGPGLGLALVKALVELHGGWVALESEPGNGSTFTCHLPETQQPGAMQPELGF

[2] = biological target: T2, DivJ (Caulobacter vibrioides, UniProt Q03228); experiment: coupled-enzyme (PK/LDH, NADH) ATPase assay; assay type: biochemical; settings: 1 mM ATP, 10 mM MgCl2, kinase buffer pH 8.0; with and without DivK activator
T2 construct: His-tagged, recombinant from E. coli
T2 sequence (Q03228 189-597): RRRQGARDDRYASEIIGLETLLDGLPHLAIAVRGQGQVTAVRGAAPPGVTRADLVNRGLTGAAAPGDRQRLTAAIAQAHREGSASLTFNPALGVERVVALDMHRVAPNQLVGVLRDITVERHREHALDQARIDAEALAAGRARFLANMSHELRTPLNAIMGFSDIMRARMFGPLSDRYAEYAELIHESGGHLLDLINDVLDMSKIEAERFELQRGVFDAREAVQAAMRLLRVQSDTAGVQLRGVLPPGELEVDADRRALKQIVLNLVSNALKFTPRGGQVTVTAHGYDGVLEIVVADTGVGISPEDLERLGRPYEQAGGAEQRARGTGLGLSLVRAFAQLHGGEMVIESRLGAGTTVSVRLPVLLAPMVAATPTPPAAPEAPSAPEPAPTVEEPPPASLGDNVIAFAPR

[3] = biological target: BODIPY-DivK (unphosphorylated DivK response regulator) (Caulobacter crescentus); experiment: fluorescence polarisation; 250 nM BODIPY-DivK or BODIPY-DivK∼P with varying kinase concentrations (DivL 0–120 µM), 45 min to equilibrium; DivK∼P made with 250 nM DivJ, 1 mM ATP, 5 mM MgCl2; unphosphorylated DivK with 1 mM AMP-PNP, 5 mM MgCl2; apparent Kd
[4] = biological target: BODIPY-DivK∼P (phosphorylated DivK response regulator) (Caulobacter crescentus); experiment: as above
[5] = biological target: the molecule itself; experiment: SEC; 2 mg/ml His6-DivL(523–769) on Superdex 200 10/300 GL against Bio-rad standards
[6] = biological target: BODIPY-DivK (unphosphorylated DivK response regulator) (Caulobacter crescentus); experiment: fluorescence polarisation; 250 nM BODIPY-DivK or BODIPY-DivK∼P with varying kinase concentrations (DivL 0–120 µM), 45 min to equilibrium; DivK∼P made with 250 nM DivJ, 1 mM ATP, 5 mM MgCl2; unphosphorylated DivK with 1 mM AMP-PNP, 5 mM MgCl2; apparent Kd; remark: listed apart in the source
[7] = biological target: BODIPY-DivK∼P (phosphorylated DivK response regulator) (Caulobacter crescentus); experiment: as above; remark: listed apart in the source
[8] = biological target: BODIPY-DivK (unphosphorylated DivK response regulator); experiment: fluorescence polarization binding assay; settings: parent: est. 2.0; read off a plot
[9] = biological target: BODIPY-DivK∼P (phosphorylated DivK response regulator); experiment: fluorescence polarization binding assay; settings: parent: est. 36; read off a plot
[10] = biological target: the molecule itself; experiment: SEC; gel filtration of the purified DivL point mutants; conditions not given

`Nc1ncnc2c1ncn2[C@@H]1O[C@H](COP(=O)(O)OP(=O)(O)OP(=O)(O)O)[C@H]2OC3(O[C@H]21)C([N+](=O)[O-])=CC(=[N+]([O-])O)C=C3[N+](=O)[O-]` (stereo partly shown) [TNP-ATP] gave a Kd [1] of 57 ± 8 µM.

For `Nc1ncnc2c1ncn2[C@@H]1O[C@H](COP(=O)(O)OP(=O)(O)OP(=O)(O)O)[C@@H](O)[C@H]1O` [ATP], the ATP consumption rate [2] was “we observed stimulation of DivJ autokinase activity in the presence of DivK”.

B1: DivJ histidine kinase, Q03228 1-597 (enzyme)
chain: RDDRYASEIIGLETLLDGLPHLAIAVRGQGQVTAVRGAAPPGVTRADLVNRGLTGAAAPGDRQRLTAAIAQAHREGSASLTFNPALGVERVVALDMHRVAPNQLVGVLRDITVERHREHALDQARIDAEALAAGRARFLANMSHELRTPLNAIMGFSDIMRARMFGPLSDRYAEYAELIHESGGHLLDLINDVLDMSKIEAERFELQRGVFDAREAVQAAMRLLRVQSDTAGVQLRGVLPPGELEVDADRRALKQIVLNLVSNALKFTPRGGQVTVTAHGYDGVLEIVVADTGVGISPEDLERLGRPYEQAGGAEQRARGTGLGLSLVRAFAQLHGGEMVIESRLGAGTTVSVRLPVLLAPMVAATPTPPAAPEAPSAPEPAPTVEEPPPASLGDNVIAFAPR
modifications: not checked
In the case of B1, the Kd [3] is reported as 8 µM and the Kd [4] is reported as 16 µM.

B2: PleC histidine kinase/phosphatase, P37894 1-842 (enzyme)
chain: VAHREFIDSERRFRLAVEAARCGIWEWDLNGDQVYLSDVTGAMFGWGGGGVVSGQDLLERISIDHRERVRQALANAAMYGAFDVSFRVPASEQGARSLWIDARGQGFGKPGSEGHARIIGVALDVTEERIAQARAQAAENRLRDAIESVSEAFVLWDRQGRLLMCNRNYRSVFSLEPKILKPGAARAEVNRFAALAIKQDHPAPDGAKGVREAEMMDGRWIQISERRTAEGGLVMTAADITAIKTQEEARRRNEEQLQNAVAGLERSQEQLAELARKYETEKVKAESANKAKSEFLANMSHELRTPLNAINGFSEIMMNEMFGPLGDQRYKGYSQDIHSSGQHLLALINDILDMSKIEAGKMNLKFESMHLEDVAEDAVRLVRNRAEAAGLKLDIDFPQLPEIEADYRAVKQVLLNLLSNAIKFTPRAGSVTVRAEVRRDPFGDLIKVSVTDTGIGIAKEDLARLAKPFEQVESQFSKTTQGTGLGLALTKSLITMHDGVLEMHSTPGEGTTVSFTLPVRHSDQKITRDFVAA
modifications: not checked
For B2, the Kd [3] was 26 µM and the Kd [4] was 2.4 µM.

B3: His6-DivL(523–769) (domain or fragment, Caulobacter crescentus, UniProt Q9RQQ9 523-769, looked up)
chain: T1 sequence (Q9RQQ9 523-769)
notes: DivL pseudo-histidine kinase, Caulobacter crescentus, residues 523-769 (DHp and CA domains with part of the N-terminal input helix); also called DivL DHp-CA construct; crystallization construct; source: E. coli Rosetta (DE3) pLysS (plasmid pWSC8), purified (Ni-NTA, gel filtration); not shown: His6, N-terminal, kept
For B3, the “stoichiometry N” value [5] was 2, the Kd [6] was 15 µM and the Kd [7] was 7 µM.

B4: DivL(152–769) Y562A (domain or fragment, Caulobacter crescentus, UniProt Q9RQQ9 152-769, looked up)
chain: RADSGLPTAARFAAFVDSVVEPCWIAGADGQAIWGNAAFVRAVGAASAQAPALAGKSFDRGADAVVVEAAGKGERREALRWINVEGRRRAFRLSAQPLDGGGVGVFCADVTEIEDVRDAFKKHVEAHDETLNHIAEAVAIFSQTRRLSYHNTAFAELWGLEPAWLADRPTHGEVLDRLRQRRRLPETIDYAGWKAAELARYEDLGPQADDLWDLPDGRTLKVVRQPHPLGGMLLIYSDITGELRLKAQYNALIQVQQATLDKLNDAVAVFGSDGRLRLHNEAFETFWNVTPHALEAAGDFEGVVELCVPRLHDLSFWRELKGRVADPDPQMRAPTSGEVRTSDSRIVLYQSRPLPDGATLIAFADVTDTRDLQSALADRSAALAEAERLKRDFVGNVSYELRTPLTTIIGASELLERADGISERGRNHVAAVRAAATQLARSIDDVLDMAQIDAGEMALEIEDIRVSDLLLNAQERALKDAQLGGVTLAVECEEDVGLIRGDGKRLAQTLDHLVENALRQTPPGGRVTLSARRALGEVRLDVSDTGRGVPFHVQAHIFDRFVGRDRGGPGLGLALVKALVELHGGWVALESEPGNGSTFTCHLPETQQPGAMQPELGF
notes: DivL pseudo-histidine kinase, Caulobacter crescentus, residues 152-769; source: E. coli Rosetta (DE3) pLysS, purified (Ni-NTA, gel filtration)
For B4, the response [8] was 2.9 AU, the response [9] was 3.2 AU and the “stoichiometry N” value [10] was 2.

B5: DivL(152–769) H579E (domain or fragment, Caulobacter crescentus, UniProt Q9RQQ9 152-769, looked up)
chain: B4 chain with A411Y, H428E
notes: as for B4
With B5 the response [8] was 4.2 AU, the response [9] was 5.1 AU and the “stoichiometry N” value [10] was 2.

B6: DivL(152–769) Y550H (domain or fragment, Caulobacter crescentus, UniProt Q9RQQ9 152-769, looked up)
chain: B4 chain with Y399H, A411Y
notes: DivL pseudo-histidine kinase, Caulobacter crescentus, residues 152-769; also called DivL Y550H; source: E. coli Rosetta (DE3) pLysS, purified (Ni-NTA, gel filtration)
With B6 the response [8] was 4 AU, the response [9] was 35 AU and the “stoichiometry N” value [10] was 2.

B7: DivL(152–769) (domain or fragment)
chain: B4 chain with A411Y
In the case of B7, the Kd [6] is reported as greater than 150 µM and the Kd [7] is reported as 11 µM.

B8: DivL(152–769) R553A (domain or fragment, Caulobacter crescentus, UniProt Q9RQQ9 152-769, looked up)
chain: B4 chain with R402A, A411Y
notes: as for B4
B8 was tested, and the response [8] was 2.3 AU, the response [9] was 3.2 AU and the “stoichiometry N” value [10] was 2.

B9: DivL(152–769) T557N (domain or fragment, Caulobacter crescentus, UniProt Q9RQQ9 152-769, looked up)
chain: B4 chain with T406N, A411Y
notes: as for B4
With B9 the response [9] was 2.6 AU and the “stoichiometry N” value [10] was 2.
